The source of these data is patent publication US20230078173A1.

The experiment addresses recombinant human PD-L1-mFc fusion protein (human) (UniProt Q9NZQ7). The experiment is described as follows: ELISA, human PD-L1-mFc immobilised (1 µg/mL), anti-human kappa-HRP detection.

recombinant human PD-L1-mFc fusion protein (human), sequence (Q9NZQ7 19-238): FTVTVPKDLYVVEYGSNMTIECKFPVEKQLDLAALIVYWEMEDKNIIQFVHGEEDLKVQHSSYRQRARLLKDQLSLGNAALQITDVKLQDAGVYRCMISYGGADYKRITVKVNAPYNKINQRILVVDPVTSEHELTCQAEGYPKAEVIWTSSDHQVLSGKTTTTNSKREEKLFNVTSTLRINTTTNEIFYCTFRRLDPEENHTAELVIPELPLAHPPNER

Avelumab/TGFβR (antibody): the EC50 amounted to 0.107 nM.
